The target in this data set is T1, CzcR (His6-CzcR) (Pseudomonas aeruginosa PAO1?) (UniProt Q9RLJ1).
T1 sequence: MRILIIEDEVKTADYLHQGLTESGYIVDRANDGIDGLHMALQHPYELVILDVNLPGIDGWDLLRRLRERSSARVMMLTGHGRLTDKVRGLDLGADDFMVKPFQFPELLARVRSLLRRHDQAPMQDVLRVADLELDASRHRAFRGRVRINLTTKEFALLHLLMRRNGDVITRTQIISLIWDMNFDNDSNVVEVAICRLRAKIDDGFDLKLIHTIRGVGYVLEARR
In words: EMSA. (In general: A gel shift assay detects complexes by their altered migration in electrophoresis.)
Consider “GCAACCGTTCGGAACATTCTTCCCGTCGGGGGTAGGCGAGCGACTTGCCCTGTGGAATAATACTGTCTACTTATACAGTTGTTCGTGGCCGTCCGGCCGCCCTGACTTCGCGAGGACTTCAATGGA (double strand) [recA promoter fragment (PrecA)]”, for which the binding result is reported as “no binding”.

For the sequence “GAATCCACCTGAAACCCACGCCCAGCAAGGCCTATAGCACTAATCACAGACGCCCTTGACCTCAACTTAACTTGAGGTTTTATAGTCCCCGCTGCGGTCATACCGCCCCGTTTCCCCAGGACCACGAACCGCCCCCACGGCCGCTTCGCGGCGCCGGATGGCGACCAGCACAAGGAACGACCCATGCAGCGCTTC (double strand) [mexGHI-opmD promoter probe (PmexG)]”, the binding result was “binds”.

As to “GATAACCGGCCATCGAGCTAAAACGTTTCAGGTGTTTTCACGCGAGGCTTTCGGACGTTTACAAACACCTATGAATGTAAGTATTTTGCCTGCCTTCTTCGAGCCGGTGCAGCGCCTTCACGCTGCATCGGCCGCTTTCGCTCATGAGGACAACGCTATGCAACGAAC (double strand) [mexAB-oprM promoter probe (PmexA)]”, the binding result is recorded as “binds”.

(Values after publication PMC10581170.)
